Experimental data from the supplement of paper PMC9112550, “Optimization of the antimicrobial peptide Bac7 by deep mutational scanning” (BMC Biology, 2022).

tested on: Escherichia coli TOP10; test: shrunken log2 fold change of peptide-encoding DNA abundance (4.5 h post-induction vs induction); higher = less antimicrobial activity (less host growth inhibition); conditions: time post-induction: 4.5 h; library: site-saturation at positions 5, 18, 19, 20
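Further: peptides expressed intracellularly from a pBAD plasmid library in pooled LB shake-flask culture, induced with 0.3% L-arabinose, DNA abundance read by NGS, three biological replicates, DESeq2 with apeglm shrinkage.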

Sequence	shrunken log2 fold change
RRIRMRPPRLPRPRPRPMWNPRP	0.0246
RRIRMRPPRLPRPRPRPNAKPRP	0.225
RRIRMRPPRLPRPRPRPNCLPRP	-0.00154
RRIRMRPPRLPRPRPRPNENPRP	0.314
RRIRMRPPRLPRPRPRPNFNPRP	-0.23
RRIRMRPPRLPRPRPRPNFTPRP	-0.099
RRIRMRPPRLPRPRPRPNGHPRP	-0.00897
RRIRMRPPRLPRPRPRPNHTPRP	-0.213
RRIRMRPPRLPRPRPRPNIFPRP	-0.0848
RRIRMRPPRLPRPRPRPNKHPRP	-0.158
RRIRMRPPRLPRPRPRPNKIPRP	0.0176
RRIRMRPPRLPRPRPRPNLRPRP	-0.0219
RRIRMRPPRLPRPRPRPNPGPRP	0.0378
RRIRMRPPRLPRPRPRPNPYPRP	-0.0714
RRIRMRPPRLPRPRPRPNRAPRP	0.239
RRIRMRPPRLPRPRPRPNRHPRP	0.0213
RRIRMRPPRLPRPRPRPNRRPRP	0.179
RRIRMRPPRLPRPRPRPNTMPRP	0.0324
RRIRMRPPRLPRPRPRPNTPPRP	0.188
RRIRMRPPRLPRPRPRPNVMPRP	-0.108
RRIRMRPPRLPRPRPRPNWEPRP	0.0757
RRIRMRPPRLPRPRPRPNYMPRP	1.06
RRIRMRPPRLPRPRPRPPAIPRP	0.911
RRIRMRPPRLPRPRPRPPCAPRP	2.14
RRIRMRPPRLPRPRPRPPCMPRP	0.181

Sequence	shrunken log2 fold change
RRIRMRPPRLPRPRPRPPEKPRP	2.49
RRIRMRPPRLPRPRPRPPFRPRP	0.693
RRIRMRPPRLPRPRPRPPGLPRP	0.702
RRIRMRPPRLPRPRPRPPGTPRP	1.05
RRIRMRPPRLPRPRPRPPGWPRP	1.25
RRIRMRPPRLPRPRPRPPHKPRP	0.585
RRIRMRPPRLPRPRPRPPIIPRP	-0.306
RRIRMRPPRLPRPRPRPPIVPRP	-0.112
RRIRMRPPRLPRPRPRPPIYPRP	-0.0765
RRIRMRPPRLPRPRPRPPKQPRP	0.742
RRIRMRPPRLPRPRPRPPKRPRP	1.05
RRIRMRPPRLPRPRPRPPKSPRP	0.478
RRIRMRPPRLPRPRPRPPMNPRP	0.315
RRIRMRPPRLPRPRPRPPPNPRP	1.77
RRIRMRPPRLPRPRPRPPQIPRP	0.468
RRIRMRPPRLPRPRPRPPQTPRP	0.424
RRIRMRPPRLPRPRPRPPTCPRP	0.183
RRIRMRPPRLPRPRPRPPTTPRP	0.991
RRIRMRPPRLPRPRPRPPVIPRP	0.312
RRIRMRPPRLPRPRPRPPVVPRP	0.753
RRIRMRPPRLPRPRPRPPYQPRP	0.0406
RRIRMRPPRLPRPRPRPQAQPRP	0.299
RRIRMRPPRLPRPRPRPQCRPRP	0.253
RRIRMRPPRLPRPRPRPQEVPRP	0.126
RRIRMRPPRLPRPRPRPQFIPRP	-0.0965

Sequence	shrunken log2 fold change
RRIRMRPPRLPRPRPRPQFLPRP	-0.106
RRIRMRPPRLPRPRPRPQGEPRP	-0.0117
RRIRMRPPRLPRPRPRPQIAPRP	0.208
RRIRMRPPRLPRPRPRPQIIPRP	0.022
RRIRMRPPRLPRPRPRPQIRPRP	-0.0442
RRIRMRPPRLPRPRPRPQLHPRP	0.546
RRIRMRPPRLPRPRPRPQLTPRP	0.743
RRIRMRPPRLPRPRPRPQMCPRP	-0.239
RRIRMRPPRLPRPRPRPQMRPRP	1
RRIRMRPPRLPRPRPRPQMWPRP	0.635
RRIRMRPPRLPRPRPRPQMYPRP	-0.24
RRIRMRPPRLPRPRPRPQPTPRP	0.868
RRIRMRPPRLPRPRPRPQPVPRP	0.622
RRIRMRPPRLPRPRPRPQQCPRP	0.143
RRIRMRPPRLPRPRPRPQQFPRP	0.359
RRIRMRPPRLPRPRPRPQRYPRP	-0.00185
RRIRMRPPRLPRPRPRPQSSPRP	-0.0185
RRIRMRPPRLPRPRPRPQTHPRP	0.318
RRIRMRPPRLPRPRPRPQTPPRP	2.18
RRIRMRPPRLPRPRPRPQVIPRP	-0.0579
RRIRMRPPRLPRPRPRPQWCPRP	-0.0474
RRIRMRPPRLPRPRPRPRASPRP	1.08
RRIRMRPPRLPRPRPRPRDIPRP	-0.0288
RRIRMRPPRLPRPRPRPRDLPRP	0.266
RRIRMRPPRLPRPRPRPREPPRP	0.447
